The values that follow come from patent publication US20220098310A1 (Alexion, published 2022).

As a reminder, the Kd is the concentration at which binding is half-saturated. Broadly, the koff is the first-order rate constant of dissociation. Usually kon stands for the rate constant with which the complex forms.

Experiment [1] addresses T1, recombinant human ALK2 extracellular domain (Creative Biomart catalog number ACVR1-01H) (human, UniProt Q04771 21-123).
T1 construct: also called ALK2 ECD; ACVR1 ECD
T1 sequence: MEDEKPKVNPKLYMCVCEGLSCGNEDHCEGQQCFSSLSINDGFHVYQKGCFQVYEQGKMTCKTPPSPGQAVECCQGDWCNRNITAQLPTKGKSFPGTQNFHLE
The experiment can be described thus: SPR (Biacore), antibody captured, ALK2 ECD as analyte. On the technique in general: Surface plasmon resonance follows binding to a sensor surface in real time, without labels.

Experiment [2] deals with T1, recombinant human ALK2 extracellular …. The experiment in a line: SPR (Biacore), JAB0481 captured at low density on anti-mouse IgG chip, ALK2 ECD as analyte, 1:1 Langmuir fit. The protocol:
(§1) Anti-mouse IgG was immobilized on carboxymethylated dextran BiaCore sensor chips (CMS, GE Biosciences) using a Mouse Antibody Capture Kit (GE Lifesciences product number BR100838). Two sensors were prepared; one for a “low” density of JAB0481 captured on the sensor and one with a “high” density of JAB0481 captured on the sensor. JAB0481 was diluted to 0.05 mg/ml in HEPES EDTA surfactant buffer (HBS-EP), pH 7.4 and injected onto the mouse antibody capture sensors. The volume of JAB0481 solution injected for the “low” density condition was […], and the volume that was used for the “high” density condition was 30 μL.
(§2) The ALK2 ECD was diluted in HBS-EP buffer and injected over the JAB0481 captured sensors at concentrations ranging from 2000 nM to 250 nM followed by a 300 second association period. This was followed by the injection of HBS-EP buffer and a 500 second dissociation period. Relative response deflection was plotted against time and the data were fitted to curves according to the Langmuir 1:1 binding kinetic model.
(§3) The sensorgrams for the binding of the ALK2 ECD to JAB0481 at low surface density is provided in FIG. 9, while the sensorgrams for the binding of the ALK2 ECD to JAB0481 at high surface density is provided in FIG. 10. Table 2 provides the association and dissociation rates, the dissociation constant, and Chi squared values calculated from the Biacore binding data.

Experiment [3] has the same target. The experiment in a line: SPR (Biacore), JAB0481 captured at high density on anti-mouse IgG chip, ALK2 ECD as analyte, 1:1 Langmuir fit. The protocol: as §1, §2, §3
Experiment [4] deals with T2, ALK1-Fc (R&D Systems catalog number 370-AL-100) (human, UniProt P37023 22-118).
T2 construct: extracellular domain; Bought; also called recombinant ALK1-Fc; paralog ALK1; not shown: Fc part (loaded on anti-human Fc tips)
T2 sequence (P37023 22-118): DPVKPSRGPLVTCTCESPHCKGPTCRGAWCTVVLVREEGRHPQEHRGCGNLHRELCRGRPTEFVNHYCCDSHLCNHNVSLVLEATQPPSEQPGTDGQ
The experiment in a line: bio-layer interferometry (Octet): ALK1-Fc captured on anti-human Fc tips, antibody in solution at 10 ug/mL. The protocol:
ALK2-Fc (R&D Systems), ALK2-Fc (Sino Biological catalog number 10227-H03H), and ALK1-Fc (R&D Systems catalog number 370-AL-100) were diluted to 10 μg/mL in 1× kinetics buffer (ForteBio) and loaded onto anti-human Fc tips (ForteBio). After baseline equilibration in kinetics buffer (ForteBio), the sensors were applied to solutions of antibodies JAB0399, JAB0481, and BB5.1 (isotype control mAb) diluted to 10 μg/ml in kinetics buffer. The sensors were then applied to antibody-free kinetics buffer to measure antibody dissociation.
Background: Biolayer interferometry detects binding as a change in optical thickness at a sensor tip.

The target in experiment [5] is T3, mouse ALK2 expressed on the cell surface of wild-type C2C12 mouse myoblast cells (mouse, UniProt P37172 21-509).
T3 construct: Endogenous ALK2 of C2C12 cells (ATCC CRL-1772); also called murine ALK2; ALK2 on C2C12 cells
T3 sequence: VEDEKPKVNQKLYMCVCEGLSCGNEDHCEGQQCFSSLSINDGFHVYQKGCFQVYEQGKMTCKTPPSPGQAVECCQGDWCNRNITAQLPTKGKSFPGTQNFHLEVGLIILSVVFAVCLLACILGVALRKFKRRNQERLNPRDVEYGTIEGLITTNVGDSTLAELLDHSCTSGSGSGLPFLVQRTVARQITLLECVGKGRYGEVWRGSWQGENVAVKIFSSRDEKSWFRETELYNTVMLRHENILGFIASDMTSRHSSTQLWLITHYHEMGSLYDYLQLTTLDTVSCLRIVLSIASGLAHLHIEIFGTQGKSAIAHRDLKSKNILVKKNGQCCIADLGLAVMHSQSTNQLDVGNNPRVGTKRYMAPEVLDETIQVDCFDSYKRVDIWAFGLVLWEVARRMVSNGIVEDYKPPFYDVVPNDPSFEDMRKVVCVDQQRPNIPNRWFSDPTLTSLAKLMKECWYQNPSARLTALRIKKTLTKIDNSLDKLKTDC
The experiment can be described thus: flow cytometry on wild-type C2C12 cells, antibody 2.45 to 5,000 ng/mL and 0 ng/mL, detected with AF488 donkey anti-mouse IgG. The method, then:
Anti-ALK2 antibodies were evaluated for binding to ALK2 expressed on the cell surface of mouse myoblast cells (C2C12; ATCC CRL-1772) by flow cytometry. The expression of ALK2 in wild-type C2C12 cells was confirmed by RT-qPCR and by observing the binding of commercially available polyclonal anti-ALK2 antibodies to the cells by flow cytometry (data not shown). […] Loss of ALK2 expression was verified by flow cytometry and genomic sequencing (data not shown).
Wild-type and ALK2 knock-out C2C12 cells were detached from culture flasks using AssayComplete™ Cell Detachment Reagent (DiscoverX) which was used to maintain intact cell membrane morphology. Cells were washed twice with PBS and then re-suspended in PBS. […] Cells were washed once in FACS buffer (5% bovine serum albumin, […] in PBS) re-suspended in blocking buffer (6% BSA in PBS) and incubated on wet ice for 15 minutes. The binding of the anti-ALK2 antibodies to cells was detected with a 1:100 dilution of Alexa Fluor488-conjugated donkey anti-mouse IgG (ThermoFisher catalog number A21202). Cells were then washed twice in FACS buffer, re-suspended in FACS buffer and the binding of anti-ALK2 antibodies determined by flow cytometry using a DxP6 flow cytometer (Cytek).
For orientation: In flow cytometry, cells or beads pass a laser one at a time.

The target of experiment [6] is T3, mouse ALK2 expressed on the cell …. The experiment in a line: cell-based or functional assay.

B1: JAB0481 (antibody, mouse IgG1, kappa)
heavy: EVQLQQSGAELVRPGASVRLSCTASGFNIKDSLMHWVKQRPEQGLEWIGWIDPEDGETKYAPNFQDKATITAVTSSNTAYLQLSSLTSEDSAIYYCARYTSDYYTMDYWGQGTSVTVSSAKTTPPSVYPLAPGSAAQTNSMVTLGCLVKGYFPEPVTVTWNSGSLSSGVHTFPAVLQSDLYTLSSSVTVPSSTWPSQTVTCNVAHPASSTKVDKKIVPRDCGCKPCICTVPEVSSVFIFPPKPKDVLTITLTPKVTCVVVDISKDDPEVQFSWFVDDVEVHTAQTKPREEQINSTFRSVSELPIMHQDWLNGKEFKCRVNSAAFPAPIEKTISKTKGRPKAPQVYTIPPPKEQMAKDKVSLTCMITNFFPEDITVEWQWNGQPAENYKNTQPIMDTDGSYFVYSKLNVQKSNWEAGNTFTCSVLHEGLHNHHTEKSLSHSPGK
light: DIQMTQSPASQSASLGESVTFTCLASQTIGTWLAWYQQKPGKSPQLLIYAATSLADGVPSRFSGSGSGTKFSFKISSLQAEDFASYYCQQLYSTPWTFGGGTKLEIKRADAAPTVSIFPPSSEQLTSGGASVVCFLNNFYPKDINVKWKIDGSERQNGVLNSWTDQDSKDSTYSMSSTLTLTKDEYERHNSYTCEATHKTSTSPIVKSFNRNEC
notes: Murine IgG1/kappa; also called antibody JAB0481; parent mAb JAB0481
Regarding B1, the figures for the Kd in experiment [1], in experiment [2] and in experiment [3] were 132 nM, 155 nM and 72.7 nM, respectively. For the same molecule, the koff came out at 0.00516 s⁻¹ in experiment [1], 0.00833 s⁻¹ in experiment [2] and 0.00467 s⁻¹ in experiment [3]. Moreover, the kon in experiment [1] was 39100 M⁻¹ s⁻¹; in experiment [2], 53600 M⁻¹ s⁻¹; in experiment [3], 64200 M⁻¹ s⁻¹. Moreover, the binding result is on record as “no binding (tested: 10 ug/mL)” in experiment [4] and “binds” in experiment [5].

B2: JAB0399 (antibody, mouse IgG1, kappa)
heavy: EVQLQQSGAELVRPGASVRLSCTASGFNIKDSLMHWVKQRPEQGLEWIGWIDPEDGETKYAPNFQDKATITAVTSSNTAYLQLSSLTSEDSAIYYCARYTSDYYTMDYWGQGTSVTVSSAKTTPPSVYPLAPGFAAQTNSMVTLGCLVKGYFPEPVTVTWNSGSLSSGVHTFPAVLQSDLYTLSSSVTVPSSTWPSQTVTCNVAHPASSTKVDKKIVPRDCGCKPCICTVPEVSSVFIFPPKPKDVLTITLTPKVTCVVVDISKDDPEVQFSWFVDDVEVHTAQTKPREEQINSTFRSVSELPIMHQDWLNGKEFKCRVNSAAFPAPIEKTISKTKGRPKAPQVYTIPPPKEQMAKDKVSLTCMITNFFPEDITVEWQWNGQPAENYKNTQPIMDTDGSYFVYSKLNVQKSNWEAGNTFTCSVLHEGLHNHHTEKSLSHSPGK
light: DIQMTQSPASQSASLGESVTFTCLASQTIGTWLAWYQQKPGKSPQLLIYAATSLADGVPSRFSGSGSGTKFSFKISSLQAEDFASYYCQQLYSTPWTFGGGTKLEIKRADAAPTVSIFPPSSEQLTSGGASVVCFLNNFYPKDINVKWKIDGSERQNGVLNSWTDQDSKDSTYSMSSTLTLTKDEYERHNSYTCEATHKTSTSPIVKSFNRNEC
notes: Murine IgG1/kappa mAb from phage library; also called antibody JAB0399; mAb JAB0399
B2: the binding result in experiment [4] was “no binding (tested: 10 ug/mL)”.

B3: JAB0505 (antibody, mouse IgG1, kappa, V domains shown)
VH: EVQLQQSGAELVRPGASVRLSCTASGFNIKDSLMHWVKQRPEQGLEWIGWIDPEDGETRYAPNFQDKATITAVTSSNTAYLQLSSLTSEDSAIYYCARYTSRYYTMEYWGQGTSVTVSS
VL: DIQMTQSPASQSASLGESVTFTCLASQTIGTWLAWYQQKPGKSPQLLIYAATSLADGVPSRFSGSGSGTKFSFKISSLQAEDFASYYCQQLYWTPWTFGGGTKLEIKR
notes: also called antibody JAB0505
For B3, in experiment [6], the “IC50, BRE-luciferase reporter assay in C2C12 cells stimulated with BMP9” value turned out to be 0.139 nM. Besides, in experiment [1], the Kd was found to be 20.8 nM, the koff stood at 0.000839 s⁻¹ and the kon came to 40300 M⁻¹ s⁻¹.

B4: JAB0501 (antibody, mouse IgG1, kappa, V domains shown)
VH: EVQLQQSGAELVRPGASVRLSCTASGFNIKDSLMHWVKQRPEQGLEWIGWIDPEDGETKYAPNFQSKATITAVTSSNTAYLQLSSLTSEDSAIYYCARYTSPYYTMDYWGQGTSVTVSS
VL: DIQMTQSPASQSASLGESVTFTCLASQTIGTWLAWYQQKPGKSPQLLIYAATSLADGVPSRFSGSGSGTKFSFKISSLQAEDFASYYCQQVYSTPWTFGGGTKLEIKR
With B4, in experiment [6], the “IC50, BRE-luciferase reporter assay in C2C12 cells stimulated with BMP9” value was determined as 0.204 nM. Also, in experiment [1], the Kd is 24.5 nM, the off-rate constant (koff) was 0.000929 s⁻¹ and the kon came out at 37900 M⁻¹ s⁻¹.
